Assay results reported in publication PMC10480500, “Cryo-EM structure of a bacteriophage M13 mini variant” (Nature Communications, 2023).

B1: minor coat protein pVII (natural protein, bacteriophage M13, UniProt P69535 1-33, looked up)
chain: MEQVADFDTIYQAMIQISVVLCFALGIIAGGQR
notes: Minor coat protein pVII of bacteriophage M13 (encoded by helper phage M13KO7); 33 residues, no signal peptide; residues 1-4 not built in the model; 5 copies in the particle (layer 1); source: E. coli TG1 with pUC19-minigenome, infected with helper phage M13KO7; in the mini phage purified from the supernatant (cobalt resin, sucrose density gradient)
B2: minor coat protein pIX (natural protein, bacteriophage M13, UniProt P69538 1-32, looked up)
chain: MSVLVYSFASFVLGWCLRSGITYFTRLMETSS
notes: Minor coat protein pIX of bacteriophage M13 (encoded by helper phage M13KO7); 32 residues, no signal peptide; 5 copies in the particle (layer 2); source: E. coli TG1 with pUC19-minigenome, infected with helper phage M13KO7; in the mini phage purified from the supernatant (cobalt resin, sucrose density gradient)
B3: minor coat protein pVI (natural protein, bacteriophage M13, UniProt P69532 1-112, looked up)
chain: MPVLLGIPLLLRFLGFLLVTLFGYLLTFLKKGFGKIAIAISLFLALIIGLNSILVGYLSDISAQLPSDFVQGVQLILPSNALPCFYVILSVKAAIFIFDVKQKIVSYLDWDK
notes: 112 amino acids, no post-translational processing reported; residues 1 and 111-112 not built in the model; 5 copies in the particle; source: E. coli TG1 with pUC19-minigenome, infected with helper phage M13KO7; in the mini phage purified from the supernatant (cobalt resin, sucrose density gradient)

Legend:
[1] = molecular target: the molecule itself; experiment: cryo-EM structure; purified M13 mini phage particle (assembled in E. coli TG1 with helper phage M13KO7), 0.6-0.8 mg/ml; whole particle 3.5 Å with 5-fold symmetry; top, middle and bottom segments refined separately at 3.5, 3.1 and 3.3 Å
[2] = molecular target: B1; experiment: as above; conditions: both partners purified

Row | Binder | stoichiometry N [1] | binding result [2]
1 | B1 | 5 | 
2 | B2 |  | binds
3 | B3 | 5 | 
